Assay [1] relates to HCC827 αvβ3-negative human EGFR mutant lung cancer cells. The assay can be described thus: HCC827 xenograft, delay of onset of erlotinib resistance. To be noted: erlotinib alone, oral, 6.25 mg/kg, six times/week. Format: in vivo, nu/nu mice. As for the experimental part: Briefly, HCC827 (5×10^6 tumor cells in 100 μl of PBS) αvβ3-negative human EGFR mutant lung cancer cells were subcutaneously injected to the right flank of female nu/nu mice (Charles River, 088, 8-10 weeks old). Tumors were measured with calipers twice per week. […] Tumors were placed into liquid nitrogen, OCT compound, or 10% formalin.

A further assay has as its system human FcγRIII. As to the kind of experiment: Promega ADCC Reporter Bioassay, FcγRIII (FIG. 7). To be noted: target cells: integrin avβ3-expressing human pancreatic cancer cells; Raji effector line with NFAT-induced luciferase. Format: cell-based. As for the experimental part:
(§1) Integrin avβ3-expressing human pancreatic cancer cells were utilized as “target cells” to assess the ability of anti-avβ3 antibodies to elicit effector cell activation using a Promega ADCC Reporter Bioassay in which “effector cell” activation is evaluated using a Raji cell line stably expressing the human FcγR I or III and NFAT-induced luciferase. Six antibody dilutions were tested per antibody, with FcγR activation shown as fold change relative to treatment with assay buffer containing no antibody.
(§2) Whereas NK cells utilize only FcγRIII/CD16 to engage antibody Fc regions, macrophages can utilize FcγRI/CD64.

The target of a further assay is integrin αvβ3 (Homo sapiens, UniProt P05106+P06756). As to the kind of experiment: In vitro cell adhesion assay on fibrinogen (FIG. 8). Format: cell-based. How it is done: (§3) Antibody affinity is evaluated using an in vitro cell adhesion assay. 48 well tissue culture plates were coated with the integrin avβ3 ligand fibrinogen or the integrin β1 ligand type I collagen, and 2000-10000 cells were added in the presence of each antibody for a range of 2-fold dilutions starting at 5 μg/mL in duplicate. Plates were washed at the endpoint and cells attached to the substrate detected using crystal violet.
Sequence of integrin αvβ3 (P06756 31-889 limits assumed): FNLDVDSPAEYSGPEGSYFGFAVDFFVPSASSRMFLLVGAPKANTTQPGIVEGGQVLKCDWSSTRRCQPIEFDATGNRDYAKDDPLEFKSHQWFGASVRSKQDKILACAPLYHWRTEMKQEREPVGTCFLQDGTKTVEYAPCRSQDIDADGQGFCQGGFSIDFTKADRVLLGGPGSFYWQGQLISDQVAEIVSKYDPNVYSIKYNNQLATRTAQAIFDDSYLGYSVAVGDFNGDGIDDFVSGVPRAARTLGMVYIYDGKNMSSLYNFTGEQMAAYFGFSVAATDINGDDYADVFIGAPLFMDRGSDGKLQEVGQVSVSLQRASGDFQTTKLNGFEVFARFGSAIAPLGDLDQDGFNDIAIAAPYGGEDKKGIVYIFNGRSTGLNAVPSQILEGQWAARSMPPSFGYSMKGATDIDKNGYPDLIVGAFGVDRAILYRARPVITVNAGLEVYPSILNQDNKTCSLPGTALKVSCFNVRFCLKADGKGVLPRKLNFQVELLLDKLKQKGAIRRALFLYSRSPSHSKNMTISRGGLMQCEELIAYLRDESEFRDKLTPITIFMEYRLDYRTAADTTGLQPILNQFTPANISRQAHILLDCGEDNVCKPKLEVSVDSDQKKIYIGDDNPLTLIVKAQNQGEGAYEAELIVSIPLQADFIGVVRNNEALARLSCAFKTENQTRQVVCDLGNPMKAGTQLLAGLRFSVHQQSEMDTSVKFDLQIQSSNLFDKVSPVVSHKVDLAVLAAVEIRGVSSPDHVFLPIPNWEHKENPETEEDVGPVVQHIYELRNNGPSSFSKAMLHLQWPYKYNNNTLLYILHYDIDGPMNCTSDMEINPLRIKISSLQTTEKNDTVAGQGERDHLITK
Sequence of integrin αvβ3 (P06756 891-1048 limits assumed): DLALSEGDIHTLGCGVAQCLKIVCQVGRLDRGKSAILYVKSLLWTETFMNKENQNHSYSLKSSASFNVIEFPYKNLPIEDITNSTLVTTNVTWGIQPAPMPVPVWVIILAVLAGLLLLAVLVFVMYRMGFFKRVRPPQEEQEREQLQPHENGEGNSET
Sequence of integrin αvβ3 (P05106 27-788): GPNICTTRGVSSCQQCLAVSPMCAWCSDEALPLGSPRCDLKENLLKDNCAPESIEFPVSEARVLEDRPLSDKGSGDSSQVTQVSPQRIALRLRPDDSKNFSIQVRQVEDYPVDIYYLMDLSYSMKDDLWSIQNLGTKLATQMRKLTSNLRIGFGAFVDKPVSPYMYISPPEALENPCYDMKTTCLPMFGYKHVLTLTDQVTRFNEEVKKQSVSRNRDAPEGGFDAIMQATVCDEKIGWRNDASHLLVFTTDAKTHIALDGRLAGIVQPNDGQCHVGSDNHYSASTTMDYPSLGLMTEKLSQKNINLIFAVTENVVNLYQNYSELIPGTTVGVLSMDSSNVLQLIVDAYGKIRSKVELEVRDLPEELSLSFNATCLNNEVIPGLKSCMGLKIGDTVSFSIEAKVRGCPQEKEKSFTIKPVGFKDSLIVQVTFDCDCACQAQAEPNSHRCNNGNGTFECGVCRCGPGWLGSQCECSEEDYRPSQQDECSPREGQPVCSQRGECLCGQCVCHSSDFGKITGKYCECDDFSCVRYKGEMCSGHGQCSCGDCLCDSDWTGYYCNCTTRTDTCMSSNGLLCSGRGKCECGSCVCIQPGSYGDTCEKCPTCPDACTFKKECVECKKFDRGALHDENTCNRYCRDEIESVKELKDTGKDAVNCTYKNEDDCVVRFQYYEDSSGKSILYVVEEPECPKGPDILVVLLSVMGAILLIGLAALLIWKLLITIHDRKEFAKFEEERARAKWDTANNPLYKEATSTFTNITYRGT
(§4) Each antibody was tested for its ability to prevent the adhesion of integrin αvβ3-expressing tumor cells to the αvβ3-mediated adhesion to fibrinogen as well as the β1-integrin mediated adhesion to type I collagen.

The target in the next assay is integrin β1 (Homo sapiens, UniProt P05556). As to the kind of experiment: In vitro cell adhesion assay on type I collagen (FIG. 8). The format is cell-based. Details: endogenous in cells. The note with it: 2-fold dilutions starting at 5 μg/mL. How it is done:
as §3, §4

Another assay concerns the target T1, human FcγRI (Homo sapiens, UniProt P12314).
T1 construct: host or cells: Raji cell line (so in the source), stably expressing the receptor and NFAT-induced luciferase
The assay can be described thus: Promega ADCC Reporter Bioassay, FcγRI (FIG. 7). The note with it: target cells: integrin avβ3-expressing human pancreatic cancer cells; Raji effector line with NFAT-induced luciferase. The format is cell-based. How it is done: as §1, §2

For assay [2], the system named is αvβ3-expressing human lung cancer cells. As to the kind of experiment: In vitro ADCC, human NK cells as effector cells (FIG. 10B). The format is cell-based. The note with it: increasing E:T. The source says: (A) In vitro ADCC for primary human monocyte-derived macrophages as effector cells. (B). In vitro ADCC for human NK cells as effector cells. Graphs show effect of increasing effector-to-target ratio (E:T) on death of αvβ3-expressing human lung cancer cells.
This distinction could produce a therapeutic advantage by achieving matching between the antigen (integrin αvβ3) and the types of effector cells that are particularly enriched in αvβ3-expressing tumors, such as macrophages.

Sequence of integrin β1 (P05556 21-798): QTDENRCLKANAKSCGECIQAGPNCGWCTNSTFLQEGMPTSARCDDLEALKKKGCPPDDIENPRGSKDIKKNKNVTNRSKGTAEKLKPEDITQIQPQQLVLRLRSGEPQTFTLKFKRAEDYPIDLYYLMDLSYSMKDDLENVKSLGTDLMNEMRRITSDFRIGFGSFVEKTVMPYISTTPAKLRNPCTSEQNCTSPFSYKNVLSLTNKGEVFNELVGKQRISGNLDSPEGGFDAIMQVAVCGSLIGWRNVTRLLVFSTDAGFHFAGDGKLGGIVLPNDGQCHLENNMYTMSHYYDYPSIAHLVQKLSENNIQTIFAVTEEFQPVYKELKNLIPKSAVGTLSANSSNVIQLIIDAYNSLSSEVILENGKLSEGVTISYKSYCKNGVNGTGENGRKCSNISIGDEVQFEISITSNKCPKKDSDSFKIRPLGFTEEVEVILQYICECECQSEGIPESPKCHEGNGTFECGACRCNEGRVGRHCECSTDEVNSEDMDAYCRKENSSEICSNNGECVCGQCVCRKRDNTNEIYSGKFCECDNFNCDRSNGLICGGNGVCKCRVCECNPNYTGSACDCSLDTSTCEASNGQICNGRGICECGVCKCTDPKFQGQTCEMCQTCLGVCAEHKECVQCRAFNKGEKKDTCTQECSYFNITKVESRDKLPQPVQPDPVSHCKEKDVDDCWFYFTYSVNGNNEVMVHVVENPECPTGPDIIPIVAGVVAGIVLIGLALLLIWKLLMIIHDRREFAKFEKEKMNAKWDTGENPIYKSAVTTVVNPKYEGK
T1 sequence (P12314 16-374): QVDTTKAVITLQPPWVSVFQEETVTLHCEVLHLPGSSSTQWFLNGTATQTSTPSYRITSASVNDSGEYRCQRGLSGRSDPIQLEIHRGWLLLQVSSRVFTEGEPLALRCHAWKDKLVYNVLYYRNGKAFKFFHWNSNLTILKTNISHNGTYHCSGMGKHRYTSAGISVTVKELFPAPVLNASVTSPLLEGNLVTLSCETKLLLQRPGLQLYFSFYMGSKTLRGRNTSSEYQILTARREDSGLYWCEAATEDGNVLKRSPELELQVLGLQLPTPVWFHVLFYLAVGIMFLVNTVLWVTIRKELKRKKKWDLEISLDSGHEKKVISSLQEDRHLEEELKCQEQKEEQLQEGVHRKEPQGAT

For the compound `C#Cc1cccc(Nc2ncnc3cc(OCCOC)c(OCCOC)cc23)c1` [erlotinib], the tumor size result in assay [1] is “initial reduction in tumor size, this is followed by an eventual tumor re-growth”.
On to “hLM609-hIgG1: humanized LM609, hIgG1 isotype (etaracizumab/Vitaxin); heavy chain SEQ ID NO:9, light chain SEQ ID NO:10 [reference compound]”, for which the “FcγRIII activation on effector cells” value with human FcγRIII is “can strongly activate FcγRIII”. The “αvβ3-mediated adhesion to fibrinogen” value with integrin αvβ3 (2-fold dilutions starting at 5 μg/mL) is reported as “blocked adhesion to fibrinogen”. The “antibody affinity, shown by ability to block αvβ3-dependent cell adhesion” value in the assay with integrin αvβ3 (comparison of isotype variants) was “equivalent”. Moreover, the “β1-integrin mediated adhesion to type I collagen” value with integrin β1 is listed as “without disrupting β1-mediated adhesion to collagen”. Besides, the “FcγRI activation on effector cells” value with human FcγRI was “lower levels of engagement”. For the same compound, the “ADCC with human NK cells as effector cells” value in assay [2] is “engages NK cells”.

(Values after patent publication US20230140868A1, “COMPOSITIONS AND METHODS FOR TREATING CANCER” (Alpha Beta Holdings, LLC, priority 2020, published 2023).)
